B1: TPR t1 (parent)
chain: GACCAAUCUGCCCUCAGAGCUCGAGAACAUCUUCGGAUGCAGAGGAGGCAGGCUUCGGUGGCGCGAUAGCGCCAACGUCCUCAACCUCCAAUGCAUCCCACCACAUGAUGAUGCCUGAAGAGCCUUGGUUUUUUG

Variants of: B1
Test: polymerase ribozyme fitness, log enrichment relative to wild type (log ratio); higher = more active; in vitro selection for triplet polymerase activity
How it was run: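 Libraries of mutants in each subunit of a heterodimeric triplet polymerase ribozyme were generated by PCR and transcribed. In triplicate, each went through one in vitro selection round: annealing with biotinylated primer, partner subunit and triplets; frozen incubation at −7 °C; gel excision of extended constructs; streptavidin-bead capture; RT-PCR. Fitness, taken from Illumina sequencing of input and output libraries, is the logarithm of a genotype's enrichment over wild-type enrichment, averaged across replicates with inverse-variance weights. The logarithm is base 2, and genotypes needed ≥10 input reads and ≥1 read per output to be kept.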

Variant	polymerase ribozyme fitness (log ratio)
A24G G39C U92G C104U	-5.73
C28G C70A	-4.55
A27G G69A	-2.88
A27U C88U C102A	-5.16
A27U G36C	-3.53
C28G C53A C88U C124A	-1.3
A24C G63C C79G A90C C124A	-7.24
A24G G44U C64U U133G	-3.26
A26G G45C A95G C98G	-7.76
G25C A46G C70U C85G	-6.39
A24C G35A U55G C115U G127U	-6.12
A27U C28U	-2.59
A24C G39A U55C C104A C124G	-5.87
A27U C76U A100U G120C	-3.8
A26G A105G	-4.04
A26G C28U A121G	-0.559
C28A G35C G61A A84C A103G C114A G117C	-7.02
A26U C56G	-3.48
A27U U78C	-2.98
A27U A37C A91G C94U U106C	-5.4
A27U C72G U78A	-3.94

Variant	polymerase ribozyme fitness (log ratio)
A27U U32A C72U C114A	-5.96
C28A C72A	-3.59
A26G C89G C102U U112A G120A	-5.43
A27G G48U	-2.47
A27U G61C	-5.97
A26U C82G C115U	-5.9
A24G A84U	-1.7
A27G A37G G57C U96G C115A	-5.8
A26U A83C	-3.24
A24G C49G	-1.9
A26U U81A	-4.77
A26U C80U	-4.31
C28A G110C A119U	-1.42
A26U C89A	-6.44
C28A A83U	-2.16
G25C C70A	-7.32
A26G G51U C101U	-5.8
A26U G52U C94G C114A	-7.17
A27G G69C C102U	-4.65
A27U C97A	-7.67
A26C G61A	-3.85

Variant	polymerase ribozyme fitness (log ratio)
A27G U78C	-2.35
A27G C56G U81A C94A G122A C123A U131A	-5.75
A27G C104A	-2.31
A27G U129C	-3.02
A27U A29C G35C A68U U109G A119G G127A	-6.64
C28A G45A	-5.12
A27G A46U G57C U81A A83C C104A G117C G122A	-7.94
G25A C28A C31G G63U A74G C99U	-7.56
A27G G71A C72U A95G	-4
A26G C70G	-3.51
G23C G69U	-5.11
C28A G71C C89G A121U C124A	-5.37
A26G G113U	-4.2
A27U G135C	-3.11
C28G C72A	-3.15
G25U A26G	-3.22
G25A C73A	-6.13
G23U C73G	-4.76
A26U C40U C64U	-3.97
A27U G113U	-4.99
A26G G45A U78G C124U U129G	-4.5

Variant	polymerase ribozyme fitness (log ratio)
A27G C115A	-3.25
C28A G45U C72A C115A	-6.12
C28A A46U G77C A121C	-4.52
A27U G47C G48A U78C A95G	-5.5
A24G A90C	-3.03
A27U C72G	-3.21
C28A G60A	-2.44
A24G U87G	-2.03
C28G C31U G58A G63A G117C	-6.83
A24G G48A C64G A108U A121C	-6.51
A27U A43U G48A C88A C123A	-4.03
A27U G71U C94A	-4.88
A26U G42C C62U C70A C88U G117U	-6.33
A26G C40U G63C C79A C101U G117A	-5.91
A27C C89U	-4.35
G25A C56A	-5.23
A24G U54G G57C C72U C73G C124U	-3.92
A27U U54A U112C G122A	-2.2
A26C C34U G36U C72A	-6.66
G25C C53A	-6.51
A26G G71U C88G G120C	-3.91

— the RNAGym collection of RNA variant scans (doi:10.1073/pnas.2313332121)
